From paper PMC7081238, “BrtB is an O-alkylating enzyme that generates fatty acid-bartoloside esters” (Nature Communications, 2020) come the findings set out here.

Substrate in this data set: C#CCCCCC(=O)O
Put plainly: purified protein. To be noted: co-substrate bartoloside G (5) 100 μM, 20 mM HEPES, 50 mM NaCl, 10 mM MgCl2, 5 mM CaCl2, pH 8.0, 37 °C, standard error, n = 3. The format is biochemical, Synechocystis salina.

By Km is commonly meant the concentration of substrate that gives half-maximal velocity.

B1: NStrep-BrtB (Synechocystis salina LEGE 06099) (protein)
chain: MANPFDVALTNLNSLYSGIPDVPVLQTYNSLNPYDISLTNLNNLSNFVIEPAVLPTAAGTYGPQISEIAFALGGGIITGALADLLSTELGIEIENEALITKFLSFWTPGSDYAFGQDYVEFIQGREGFDTIIGYDPGFNSALAPVQIDFVLGGPRQDFNFFAPLDEPARYVLGDWRTPYYVDNDIQSEGLNEFMYVSLFTLNPDEFSPDNAENHRIQLYGSLDNYYFVPTTVVIDGSALDPSLPSIPVPGTEIYYKTGQVFADLIAIVPFQDPNDPNLISAWIDFEGYLPPEQADLSGQTANPLLSGSPLLQLGYEGIDMGTATALAPDGDIYVAGSTSSLLGPFPRGGSDNFIARYNDDGSLEWIVQFGSTEFDIITDIVSDSAGNVYATGWTRGNVETGFGLAPGVQDNWVAKFDANGSQLWVEQFTIDGYLDRSMGIALDEVNGRIHLTGHSNTDGSVADTNDPAIVPNGNVVTWIAGFDANTGAEDYRNVFEVAQTSNSRGRIDEGFGIDVDDAGNVFSTGWAGENAYDVYLVKSDTDGAVLWTKSFGTGSNATQSYAWDVASDGTNAYILGWTQGELNTFRDQIPPTDEFAGNATAPLTPQNAYQGGTFDAFVAAYDTDGTELWTWHVGGTGDDGTFFGKIVAAGDFVYATGYTDGFIGTLGGSNAGDYDAWIGKFDKLTGQTAWIQQIGSTKLDYATGISVDGDDIFVTGFTEGSLGGLNGGASDAWVAKLNQDGALEAFNVSAPIAPPAPFAPPAPLTPPAPPAPDLSSLQSLGSTPQPTYPALGDSYGTNPFGTQPTQPTYDLSSMYQNAYYGGFGGYSGYGY
notes: N-terminal Strep-Tag, pET-51b, E. coli BL21 (DE3) Rosetta; cloning primers imply N-terminus MANPF and C-terminus GYGY; two protein preparations pooled 1:1
In the case of B1, the Michaelis constant (Km) amounted to 234 ± 41 µM.
